{
  "source": "patent US11969458B2",
  "about": "“Formula of neuregulin preparation” (Zensun (Shanghai) Science & Technology, Co., Ltd., priority 2014, dated 2024)",
  "molecules": {"B1": {"name": "rhNRG-1: proteins or peptides which consist of amino acid sequence of SEQ ID NO: 2 (protein, listed as Homo sapiens)", "chain": "SHLVKCAEKEKTFCVNGGECFMVKDLSNPSRYLCKCPNEFTGDRCQNYVMASFYKAEELYQ"}},
  "experiment": "Narrow pH stability study of rhNRG-1 (pH 2.3 to 4.3) by RP-HPLC with Arrhenius shelf life prediction",
  "type": "physicochemical",
  "procedure": "In a plastic tube, add the API and DI-water. Mix into a solution containing 0.25 mg/mL rhNRG-1, 4 mM phosphate (from the API) and 0.1M NaCl (from the API). Adjust pH down using a diluted HCl. Once the first target is reached, transfer about 8 mL into a separate plastic tube and continue the titration to hit the next target and collect about 8 mL at each target (i.e. 4.29, 3.90, 3.78, 3.47, 3.36, 3.17, 3.02, 2.85, 2.58, 2.37 and 2.33). For each pH, transfer into glass vials for total 5 vials each level. Place one vial each at 2-8, 25, 40, 50 and 60° C. […]\nFor 40° C., remove 200 μL and test by HPLC after 0, 5.7, 7 and 11 days\nConstruct a narrow range pH-rate (stability) profile at each temperature.\nDerive an Arrhenius equation and predict shelf life at 5° C.\nUsing the 40, 50 and 60° C. data for each pH (2.3 to 3.9), an Arrhenius plot was used to predict the shelf life at 5° C. for each pH level. The T90 values calculated from the Arrhenius plots are provided as follows (Table 11): […]",
  "key": {"[1]": {"details": "pH 2.37, predicted shelf life at 5° C. from Arrhenius plot"}, "[2]": {"details": "pH 2.58, predicted shelf life at 5° C. from Arrhenius plot"}, "[3]": {"details": "pH 3.02, predicted shelf life at 5° C. from Arrhenius plot"}, "[4]": {"details": "pH 3.36, predicted shelf life at 5° C. from Arrhenius plot"}, "[5]": {"details": "pH 3.90, predicted shelf life at 5° C. from Arrhenius plot"}},
  "data": [
    {"molecule": "B1", "values": [
      {"measurement": "pH of the best stability, narrow pH study", "setting": "pH 2.3 to 4.3", "value": "3.4 (±0.2)"},
      {"measurement": "Initial Conc", "setting": "pH 2.37 (diluted HCl)", "value": 0.241, "unit": "mg/mL"},
      {"measurement": "% over initial conc.", "setting": "pH 2.37, 40° C., 5.7 days", "value": 90, "unit": "%"},
      {"measurement": "% over initial conc.", "setting": "pH 2.37, 40° C., 7 days", "value": 83, "unit": "%"},
      {"measurement": "% over initial conc.", "setting": "pH 2.37, 40° C., 11 days", "value": 77, "unit": "%"},
      {"measurement": "% over initial conc.", "setting": "pH 2.37, 50° C., 5.7 days", "value": 82, "unit": "%"},
      {"measurement": "% over initial conc.", "setting": "pH 2.37, 50° C., 7 days", "value": 53, "unit": "%"},
      {"measurement": "% over initial conc.", "setting": "pH 2.37, 50° C., 11 days", "value": 36, "unit": "%"},
      {"measurement": "% over initial conc.", "setting": "pH 2.37, 60° C., 3.7 days", "value": 55, "unit": "%"},
      {"measurement": "% over initial conc.", "setting": "pH 2.37, 60° C., 4.7 days", "value": 57, "unit": "%"},
      {"measurement": "% over initial conc.", "setting": "pH 2.37, 60° C., 5.7 days", "value": 43, "unit": "%"},
      {"measurement": "T90", "setting": "[1]", "value": 166, "unit": "days"},
      {"measurement": "T90 (months)", "setting": "[1]", "value": 6, "unit": "months"},
      {"measurement": "Initial Conc", "setting": "pH 2.58 (diluted HCl)", "value": 0.238, "unit": "mg/mL"},
      {"measurement": "% over initial conc.", "setting": "pH 2.58, 40° C., 5.7 days", "value": 96, "unit": "%"},
      {"measurement": "% over initial conc.", "setting": "pH 2.58, 40° C., 7 days", "value": 89, "unit": "%"},
      {"measurement": "% over initial conc.", "setting": "pH 2.58, 40° C., 11 days", "value": 83, "unit": "%"},
      {"measurement": "% over initial conc.", "setting": "pH 2.58, 50° C., 5.7 days", "value": 90, "unit": "%"},
      {"measurement": "% over initial conc.", "setting": "pH 2.58, 50° C., 7 days", "value": 54, "unit": "%"},
      {"measurement": "% over initial conc.", "setting": "pH 2.58, 50° C., 11 days", "value": 35, "unit": "%"},
      {"measurement": "% over initial conc.", "setting": "pH 2.58, 60° C., 3.7 days", "value": 62, "unit": "%"},
      {"measurement": "% over initial conc.", "setting": "pH 2.58, 60° C., 4.7 days", "value": 60, "unit": "%"},
      {"measurement": "% over initial conc.", "setting": "pH 2.58, 60° C., 5.7 days", "value": 55, "unit": "%"},
      {"measurement": "T90", "setting": "[2]", "value": 317, "unit": "days"},
      {"measurement": "T90 (months)", "setting": "[2]", "value": 11, "unit": "months"},
      {"measurement": "Initial Conc", "setting": "pH 3.02 (diluted HCl)", "value": 0.236, "unit": "mg/mL"},
      {"measurement": "% over initial conc.", "setting": "pH 3.02, 40° C., 5.7 days", "value": 99, "unit": "%"},
      {"measurement": "% over initial conc.", "setting": "pH 3.02, 40° C., 7 days", "value": 94, "unit": "%"},
      {"measurement": "% over initial conc.", "setting": "pH 3.02, 40° C., 11 days", "value": 88, "unit": "%"},
      {"measurement": "% over initial conc.", "setting": "pH 3.02, 50° C., 5.7 days", "value": 95, "unit": "%"},
      {"measurement": "% over initial conc.", "setting": "pH 3.02, 50° C., 7 days", "value": 79, "unit": "%"},
      {"measurement": "% over initial conc.", "setting": "pH 3.02, 50° C., 11 days", "value": 70, "unit": "%"},
      {"measurement": "% over initial conc.", "setting": "pH 3.02, 60° C., 3.7 days", "value": 70, "unit": "%"},
      {"measurement": "% over initial conc.", "setting": "pH 3.02, 60° C., 4.7 days", "value": 68, "unit": "%"},
      {"measurement": "% over initial conc.", "setting": "pH 3.02, 60° C., 5.7 days", "value": 0, "unit": "%"},
      {"measurement": "T90", "setting": "[3]", "value": 612, "unit": "days"},
      {"measurement": "T90 (months)", "setting": "[3]", "value": 20, "unit": "months"},
      {"measurement": "Initial Conc", "setting": "pH 3.36 (diluted HCl)", "value": 0.230, "unit": "mg/mL"},
      {"measurement": "% over initial conc.", "setting": "pH 3.36, 40° C., 5.7 days", "value": 101, "unit": "%"},
      {"measurement": "% over initial conc.", "setting": "pH 3.36, 40° C., 7 days", "value": 97, "unit": "%"},
      {"measurement": "% over initial conc.", "setting": "pH 3.36, 40° C., 11 days", "value": 90, "unit": "%"},
      {"measurement": "% over initial conc.", "setting": "pH 3.36, 50° C., 5.7 days", "value": 99, "unit": "%"},
      {"measurement": "% over initial conc.", "setting": "pH 3.36, 50° C., 7 days", "value": 85, "unit": "%"},
      {"measurement": "% over initial conc.", "setting": "pH 3.36, 50° C., 11 days", "value": 76, "unit": "%"},
      {"measurement": "% over initial conc.", "setting": "pH 3.36, 60° C., 3.7 days", "value": 77, "unit": "%"},
      {"measurement": "% over initial conc.", "setting": "pH 3.36, 60° C., 4.7 days", "value": 69, "unit": "%"},
      {"measurement": "% over initial conc.", "setting": "pH 3.36, 60° C., 5.7 days", "value": 63, "unit": "%"},
      {"measurement": "T90", "setting": "[4]", "value": 1092, "unit": "days"},
      {"measurement": "T90 (months)", "setting": "[4]", "value": 36, "unit": "months"},
      {"measurement": "Initial Conc", "setting": "pH 3.90 (diluted HCl)", "value": 0.230, "unit": "mg/mL"},
      {"measurement": "% over initial conc.", "setting": "pH 3.90, 40° C., 5.7 days", "value": 101, "unit": "%"},
      {"measurement": "% over initial conc.", "setting": "pH 3.90, 40° C., 7 days", "value": 96, "unit": "%"},
      {"measurement": "% over initial conc.", "setting": "pH 3.90, 40° C., 11 days", "value": 88, "unit": "%"},
      {"measurement": "% over initial conc.", "setting": "pH 3.90, 50° C., 5.7 days", "value": 102, "unit": "%"},
      {"measurement": "% over initial conc.", "setting": "pH 3.90, 50° C., 7 days", "value": 88, "unit": "%"},
      {"measurement": "% over initial conc.", "setting": "pH 3.90, 50° C., 11 days", "value": 79, "unit": "%"},
      {"measurement": "% over initial conc.", "setting": "pH 3.90, 60° C., 3.7 days", "value": 83, "unit": "%"},
      {"measurement": "% over initial conc.", "setting": "pH 3.90, 60° C., 4.7 days", "value": 81, "unit": "%"},
      {"measurement": "% over initial conc.", "setting": "pH 3.90, 60° C., 5.7 days", "value": 73, "unit": "%"},
      {"measurement": "T90", "setting": "[5]", "value": 239, "unit": "days"},
      {"measurement": "T90 (months)", "setting": "[5]", "value": 8, "unit": "months"},
      {"measurement": "Initial Conc", "setting": "pH 4.29 (diluted HCl)", "value": 0.235, "unit": "mg/mL"},
      {"measurement": "% over initial conc.", "setting": "pH 4.29, 50° C., 5.7 days", "value": 100, "unit": "%"},
      {"measurement": "% over initial conc.", "setting": "pH 4.29, 50° C., 11 days", "value": 78, "unit": "%"},
      {"measurement": "% over initial conc.", "setting": "pH 4.29, 60° C., 3.7 days", "value": 80, "unit": "%"},
      {"measurement": "% over initial conc.", "setting": "pH 4.29, 60° C., 5.7 days", "value": 72, "unit": "%"}
    ]}
  ]
}
